# Tested on: MS2 coat protein
# Experiment: apparent KD of MS2 coat protein; designed switch direction (-1 OFF switch, 1 ON switch): -1; higher = weaker reporter binding
# How it was run: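 Each step of the titration lasted 0.8–1.5 h at the lowest concentration and 10–20 min at the highest. The protein, SNAP-549-labelled MS2 coat protein, went from 0.7 or 1.5 nM doubling to 3 µM over RNA switches transcribed on Illumina chips by stalled E. coli RNA polymerase. Normalised cluster fluorescence was curve-fitted, and the per-design median over clusters is given as apparent KD.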
# [1] = Eterna round: R95, input ligand: FMN 200 uM
# [2] = Eterna round: R95, input ligand: microRNA oligo, concentration not stated
# [3] = Eterna round: R95, input ligand: none
# [4] = input ligand: microRNA oligo, concentration not stated
Sequence,apparent KD of MS2 coat protein [1],apparent KD of MS2 coat protein [2],apparent KD of MS2 coat protein [3],apparent KD of MS2 coat protein (input ligand: FMN 200 uM),apparent KD of MS2 coat protein [4],apparent KD of MS2 coat protein (input ligand: none)
AUAAUUUAAGUCAGGAUAUACCUAUGGAAACAUAGGUAGAAGGGACAUGAGGAUCACCCAUGUUUAUAUACAUA [Fiskers BMX 4 - 4] (puzzle: Brourd's mod of Exclusion 4),29.8 nM,16.8 nM,15.1 nM,,,
"GGAGGACGAGCAGGAUAUUUUCACAUGAGGAUCACCCAUGUGUACUCAGGGUAAUCCUCCGCCGAAAAGAAGGGUUCGGAAGAA [JL ViennaUCT Socedi mod 1] (Eterna round: R96, puzzle: Exclusion NG 2)",,,,46.7 nM,33.2 nM,50.8 nM
"ACAAGCUUUUUGUUCGUCUUAUAAUAUUCAAUAAAGAUAACAUGAGGAUCACCCAUGUAACAAAGACGGACUCAUGU [Sesor Array 16 - Jieux - Sensor v3, turn-off variant 2] (puzzle: Sensor v3, turn-off variant 2)",16.5 nM,267 nM,12.4 nM,,,
"GAUUAGCGAGGAUAUACAUGAGGAUCACCCAUGUGAUCCUAAGGCUGAUCAAGCCUAUGUAGAAGGCGCAAAUC [salish99_ex3_r5_001] (Eterna round: R97, puzzle: Exclusion 3)",,,,35.2 nM,,224 nM
"CUUGUGUUAGGAUAUGUUAAGCCGCCACCUGGCGGAUCAGGACAGAAGGAACAUGAGGAUCACCCAUGUAAAAG [Inenxele] (Eterna round: R97, puzzle: Exclusion 4)",,,,55.1 nM,,105 nM
"GUUAAUUGUCAGAUGGGUGACAUGAGGAUCACCCAUGUCACAAGCUUUUUGCUCGUCUUAUAAUUAACCCAUCUGAC [Stov1/11-A3] (Eterna round: R97, puzzle: Sensor, turn-off variant 1)",,,,13.6 nM,,13.3 nM
"UUUGUCUGUGUGAGGAUAUACUUGUUUGGGUUUUUGUAGAAGGCACAUGAGGAUCACCCAUGUAUUUUGUCGUG [JR_BME4_Sub018] (Eterna round: R96, puzzle: Brourd's mod of Exclusion 4)",,,,77.7 nM,34.1 nM,41.9 nM
GGUUGGCGAGGAUAUACAUGAGGAUCACCCAUGUGUGAGAAAAAAGUGAGGAAGAAAAGUAGAAGGCGCUGACG [salish99_ex3_r3_007] (puzzle: Exclusion 3),30.2 nM,70.7 nM,62.1 nM,,,
"UAGAAACAUGAGGAUCACCCAUGUGAGGAUAUGGCCCGCCCGGCGUGAGCUGGUUUUGUCAGAAGGCGCAUAGG [salish99_ex1_r4_020] (Eterna round: R97, puzzle: Exclusion 1)",,,,115 nM,,71.1 nM
"ACUUGCGAUAUGCUCGUCUUAUUUUUGUUGACGUUCUAUACAUGAGGAUCACCCAUGUUUUGUUCCUUGUGCUGGUA [JR_SV3TOV2_Sub072] (puzzle: Sensor v3, turn-off variant 2)",161 nM,170 nM,184 nM,,,
CAGGAUAGAGGAUAUACGUAGAUACAGAUUCAUGUAAUCCUACAUGAGGAUCACCCAUGUAGAAGGCUAUCCUG [Fiskers Ex 2 - 18] (puzzle: Exclusion 2),,17.6 nM,,,,
UUUAAAACAUAGGAUAUCGAAUUAAUCAUUUAACGAGAAGGAUGAACAUGAGGAUCACCCAUGUGGUAUCAUGG [Mat - Exclusion 6 - JL Mod - D19] (puzzle: Exclusion 6),282 nM,274 nM,270 nM,,,
"UUUAAUUUUUUUUUUUUACAAGCUUUUUGCUCGUCUUAUACAUGAGGAUCACCCAUGUGGGUGGAAAGUAAAUUAUC [JMF 47] (puzzle: Sensor v3, turn-off variant 2)",38.9 nM,96.3 nM,56.2 nM,,,
UUCCUCGUUGUGAGGAUAUCGUCCGUGUUUUGUUACGAGAAGGCACAUGAGGAUCACCCAUGUUACUUGAUGUU [JR_BMOE4_Sub073] (puzzle: Brourd's mod of Exclusion 4),,18.9 nM,,,,
"GAAAACGCAGAGGAUAUUUCAGAUCCUAGCUGCAAAGAAGGCUGCACAUGAGGAUCACCCAUGUGGUCCUGAAA [Quesina mod] (Eterna round: R97, puzzle: Exclusion 6)",,,,116 nM,,38.6 nM
GAAAACCAAGGAUAUACAUGAGGAUCACCCAUGUAGGUUGGGACGCCAUAAAGGCGAUGUAGAAGGUGGGAAAA [Inansoge] (puzzle: Exclusion 3),,21.6 nM,,,,
"UCAAGUUUUUUGUUUUUUAACAUGAGGAUCACCCAUGUAUUUUUAUAGUAUGUGUGAAUAAGAUCUCUUUGUCUUAU [JR_SV3TOV1_Sub098] (puzzle: Sensor v3, turn-off variant 1)",46.6 nM,149 nM,49.5 nM,,,
GCGUAUGAGCAGGAUAUCCGACGGGAAUCCAAAGGAGAAGGGCUCACAUGAGGAUCACCCAUGUGGUCCAAAAC [Agediat] (puzzle: Exclusion 6),109 nM,24 nM,27.3 nM,,,
